Laboratory results taken from PMC6395731.

Columns and labels:
Test in all cases: EMSA
[1] = tested on: XRCC1 full length (Homo sapiens); conditions: EMSA: 5 nM DNA, 12 mM Tris pH 8.0, 100 mM NaCl, 20 mM KCl, 3 mM MgCl2, 1 mM EDTA, 0.1% CHAPS, 10 mM 2-mercaptoethanol, 8.5% glycerol, BSA (0.02 mg/mL), room …
[2] = tested on: XRCC1 219-415 (CDB) (Homo sapiens); conditions: EMSA: 5 nM DNA, 12 mM Tris pH 8.0, 100 mM NaCl, 20 mM KCl, 3 mM MgCl2, 1 mM EDTA, 0.1% CHAPS, 10 mM 2-mercaptoethanol, 8.5% glycerol, BSA (0.02 mg/mL), room …
[3] = tested on: XRCC1 219-633 P1/3-YFP-NLS (Homo sapiens); conditions: 2 uM protein; EMSA: 5 nM DNA, 12 mM Tris pH 8.0, 100 mM NaCl, 20 mM KCl, 3 mM MgCl2, 1 mM EDTA, 0.1% CHAPS, 10 mM 2-mercaptoethanol, 8.5% glycerol, BSA (0.02 mg/mL), room …
[4] = tested on: XRCC1 219-633 (Homo sapiens); conditions: EMSA: 5 nM DNA, 12 mM Tris pH 8.0, 100 mM NaCl, 20 mM KCl, 3 mM MgCl2, 1 mM EDTA, 0.1% CHAPS, 10 mM 2-mercaptoethanol, 8.5% glycerol, BSA (0.02 mg/mL), room …

## 39 bp duplex
[1]
  Kd: 0.62 µM
[2]
  Kd: 0.67 µM
[3]
  binding signal (% of wild type): 6
[4]
  Kd: 0.7 µM
